Source: patent US20060292140A1 (published 2006)

How the values were obtained:
human α4β7 integrin [1] = target: T1, human α4β7 integrin (human, UniProt P13612 34-1032; P26010 20-798); assay: flow cytometry on HuT 78 cells, transient COS-7 expression
T1 construct: whole, on cells; also called α4β7 integrin on HuT 78 cells; on RPMI 8866 cells

human α4β7 integrin [2] = target: T1, human α4β7 integrin; assay: flow cytometry competition on HuT 78 cells; competitor biotinylated murine Act-1 held constant; experiment 2, lot 2
Protocol: (§1) Unless otherwise indicated, all reagents were diluted in 0.15 M PBS/1.0% FCS/0.1% sodium azide. The varying concentrations for both antibodies ranged in half-log increments from 2.0×10⁻⁶M to 5.0×10⁻¹¹M. After removal of the primary antibodies, the cells were then suspended in 100 μl streptavidin phycoerythrin (Dako Corp., Carpinteria, Calif.) diluted 1:200. After washing in 200 μl PBS, cells were resuspended in 0.5 ml of PBS/1% formalin and refrigerated until analyzed. Samples were analyzed on a FACScan (Becton Dickinson Corp., San Jose, Calif.) using a 488 nm laser to excite phycoerythrin. For each sample, a minimum of 10,000 cells was analyzed and MCF calculated. All samples were performed in duplicate. The IC₅₀ was determined as the concentration of unconjugated antibody producing a 50% reduction in the MCF from the biotinylated homologue antibody.

human α4β7 integrin [3] = target: T1, human α4β7 integrin; assay: flow cytometry competition on HuT 78 cells; competitor biotinylated murine Act-1 held constant; experiment 5, lot 2
Protocol: as §1

human α4β7 integrin [4] = target: T1, human α4β7 integrin; assay: flow cytometry competition on HuT 78 cells; competitor biotinylated LDP-02/3A9/Lot#1 held constant
Protocol: as §1

human α4β7 integrin [5] = target: T1, human α4β7 integrin; assay: flow cytometry competition on HuT 78 cells; competitor biotinylated murine Act-1 held constant; mean of 5 experiments
Protocol: as §1

human α4β7 integrin [6] = target: T1, human α4β7 integrin; assay: flow cytometry titration of biotinylated antibody on HuT 78 cells, half-maximal mean channel fluorescence
Protocol: Unless otherwise indicated, all reagents were diluted in 0.15 M PBS/1.0% FCS/0.1% sodium azide. […] After washing in 200 μl PBS, cells were resuspended in 0.5 ml of PBS/1% formalin and refrigerated until analyzed. Samples were analyzed on a FACScan (Becton Dickinson Corp., San Jose, Calif.) using a 488 nm laser to excite phycoerythrin. […] All samples were performed in duplicate.

human α4β7 integrin [7] = target: T1, human α4β7 integrin; assay: flow cytometry competition on HuT 78 cells; competitor biotinylated murine Act-1 held constant; experiment 4, lot 2
Protocol: as §1

human α4β7 integrin [8] = target: T1, human α4β7 integrin; assay: cell-based or functional assay
human α4β7 integrin [9] = target: T1, human α4β7 integrin; assay: flow cytometry competition on HuT 78 cells; competitor biotinylated murine Act-1 held constant; experiment 3, lot 2
Protocol: as §1

human α4β7 integrin [10] = target: T1, human α4β7 integrin; assay: flow cytometry competition on HuT 78 cells; competitor biotinylated murine Act-1 held constant; experiment 1, lot 2
Protocol: as §1

Row | binding result (human α4β7 integrin [1]) | IC50 (human α4β7 integrin [2]) [nM] | IC50 (human α4β7 integrin [3]) [nM] | IC50 (human α4β7 integrin [4]) [nM] | IC50 (human α4β7 integrin [5]) [nM] | EC50 (human α4β7 integrin [6]) [µg/mL] | IC50 (human α4β7 integrin [7]) [nM] | IC50: concentration which inhibited by 50% the adhesion of RPMI 8866 cells to human MAdCAM-1-Ig chimera (human α4β7 integrin [8]) [µg/mL] | IC50 (human α4β7 integrin [9]) [nM] | IC50 (human α4β7 integrin [10]) [nM] | Binder
1 | binds |  |  |  |  |  |  |  |  |  | derivative of LDP-02 (Fc-mutated) having a mutation in the light chain (MV4) plus a double mutation in the heavy chain (R38K, A40R) (antibody, human IgG1, V domains shown, transient COS-7 expression; also called M4V / R38K, A40R derivative) VH: QVQLVQSGAEVKKPGASVKVSCKGSGYTFTSYWMHWVKQRPGQRLEWIGEIDPSESNTNYNQKFKGRVTLTVDISASTAYMELSSLRSEDTAVYYCARGGYDGWDYAIDYWGQGTLVTVSS VL: DVVVTQSPLSLPVTPGEPASISCRSSQSLAKSYGNTYLSWYLQKPGQSPQLLIYGISNRFSGVPDRFSGSGSGTDFTLKISRVEAEDVGVYYCLQGTHQPYTFGQGTKVEIK
2 |  | 10.9 | 10.2 | 6.3 | 7.94 | 0.1 | 4.91 | 0.0018 | 6.02 | 7.57 | murine Act-1 monoclonal antibody (antibody, mouse IgG1, V domains shown, Mouse IgG1/kappa from the Act-1 hybridoma; also called mouse Act-1; ACT-1 (murine)) VH: QVQLQQPGAELVKPGTSVKLSCKGYGYTFTSYWMHWVKQRPGQGLEWIGEIDPSESNTNYNQKFKGKATLTVDISSSTAYMQLSSLTSEDSAVYYCARGGYDGWDYAIDYWGQGTSVTVSS VL: DVVVTQTPLSLPVSFGDQVSISCRSSQSLAKSYGNTYLSWYLHKPGQSPQLLIYGISNRFSGVPDRFSGSGSGTDFTLKISTIKPEDLGMYYCLQGTHQPYTFGGGTKLEIK
